Data on 30 sequences can be found in the supplement of paper PMC12636428.

The data set has as its system Saccharomyces cerevisiae. Put plainly: transcriptional activation domain activity (GFP:mCherry ratio, weighted mean of sorted bins, harmonized to initial dataset scale) (arbitrary fluorescence ratio units); higher = stronger transcriptional activation. To be noted: beta-estradiol 1 µM; induction time 4 h. The procedure, abridged: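 Values are activation activity, found as the read-weighted mean of bin median fluorescence, averaged across barcodes and then mapped linearly onto the initial dataset scale. Barcoded protein tiles fused to an estradiol-inducible synthetic transcription factor were integrated at the URA3 locus of GFP-reporter yeast diploids. Cells were induced for 4 hours at 30 °C with 1 uM beta-estradiol in SC, sorted into 8 bins by GFP:mCherry ratio, and barcode-sequenced, with tiles under 50 reads discarded.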

Take “PKADGDAEPKPKAPRGTKRKAAEETNGAEEGGEAPAAKKAKPASKAKPASKAA”: the “transcriptional activation domain activity” value was determined as 16400.

For the sequence “PKAEAPKAEAPKPKEEESKKETAKQESKPEPKKADASKIAAPAASKPPAPKPS”, the “transcriptional activation domain activity” value worked out at 49200.

Regarding “PKCSSLRKPTNTLQGTNHAYHEHILNTDMDLKILEDLCNISSLYEVPFGKHIN”, the “transcriptional activation domain activity” value was determined as 115000.

For the sequence “PKDEKKQEDDQKAKDGSKSEGDLGEKKEEKVEEKKDDDNKSGEKKDEASKSGD”, the “transcriptional activation domain activity” value amounted to 28000.

As to “PKDGAKEEKKSSKSRGEEKRSRSDRKEREREEKSSKGSASDKAEQPPKATASS”, the “transcriptional activation domain activity” value stood at 6730.

In the case of “PKDSEPEGADKLKPMQEVYGAVRNTGIGTEVDNRDNMIRGRWRKLLHARLAHL”, the “transcriptional activation domain activity” value was 43500.

“PKEAVASTPEEPAASEPVAAPALAAAEPVAAAEAPAAAPVPETKAEEVSIQHL”: the “transcriptional activation domain activity” value was determined as 23600.

“PKEDVQPEPEAQPAESVEAAPASEEQAPVEKTEEAPATEETEESRPSPPAARL”: the “transcriptional activation domain activity” value amounted to 37600.

As for “PKKEEPKRRSASRKRGSIFGGSLFGKKEEAKKEEEKPVEAAAETKAAETEAPA”, the “transcriptional activation domain activity” value worked out at 30700.

For the sequence “PKKLQEDTELETEQENQMLNQVGNINYTHDFSLSHEIDDLIRELFGVGTPQKL”, the “transcriptional activation domain activity” value was 65300.

Consider “PKPAPAAAAAPAPAAAPPAAAPAPEPKKYAPPPARPAPAPAAAPVAAAAAAAP”, for which the “transcriptional activation domain activity” value was found to be 9320.

Regarding “PKPKAKTPSKAKKKAEPIPKAKAAPKPKEKTTPNTPARRGRPRKEKAAAETPM”, the “transcriptional activation domain activity” value was 37500.

Regarding “PKPVPEQEMKDAAEKPEPEETKAAGEVKPEDAMEVDQTSKPAKSKKGKIVKRR”, the “transcriptional activation domain activity” value worked out at 24400.

With “PKQYCVRPNAARLEPGERVEVQVLLQPMKEDPPEDTKCRDKFLIQSAAIPPQH”, the “transcriptional activation domain activity” value is 39200.

For the sequence “PKRASQGRNFNTLFDKYFTGKDWEIHIMRTLRPDIFILLCVLFVPTEFKEIHD”, the “transcriptional activation domain activity” value worked out at 37700.

As for “PKRGRGRPPKDPAAKAAAAAAAAEAEANGEKKPGRGRPRKNPVPSGEGGEAVP”, the “transcriptional activation domain activity” value was determined as 19600.

On to “PKRKRAAPKKKDAEDNTEEKPKRGRKKKEENGDAEEKPKKAPVRKARATKKVE”, for which the “transcriptional activation domain activity” value is less than 6570.

Consider “PKRRLGVAVTWTGLTLLLLLLLLLLPSLIILPSFAACFWYIYWGILRISFFFY”, for which the “transcriptional activation domain activity” value came out at 26100.

For the sequence “PKSRPKKAKEEAVATGALGATGVVPEKRKRGRPRKIQPPIDGVALVAPPVAAP”, the “transcriptional activation domain activity” value turned out to be 51700.

Turning to “PKVLYILARYLGIIYISLFLGLRWSHFPIFVMKVNNLAYFVNALLYYTWIIIT”, the “transcriptional activation domain activity” value was determined as 33800.

In the case of “PKWHRYEDYEALFRVRNLCFPLILSGDIQLTLEYWWSIFSTSILRRPIFELNI”, the “transcriptional activation domain activity” value is 69600.

As to “PLAGNSPGLPPEEVRNNSENASHNNETGPIETELAQTISNEFWTAYNLGWEEL”, the “transcriptional activation domain activity” value was 56400.

On to “PLALDFPPLGHMVELVDVVMWLCGRAGELPMWPQKIFNFNWIELSMKYPHHFI”, for which the “transcriptional activation domain activity” value was 50500.

For the sequence “PLEKLMCLRTSLSLLSAAADKYMQENRLTVFHTSVASDDLILLLACALTQTHL”, the “transcriptional activation domain activity” value is 50200.

Regarding “PLEYFDIKALSALIVFDEFPNYIIGLLLQSYPELVHGTFMPYIECMLFTMNPL”, the “transcriptional activation domain activity” value turned out to be 61800.

For the sequence “PLFRHQDSLLIVASNIGLVGMISILVYCTYAFSLQSVVKFYFIPYVLVNHWIV”, the “transcriptional activation domain activity” value worked out at 45200.

On to “PLFSILFSLSSFLSLPCPAHGCGPVGSWWSCLFLLFFFLSLLVMLSLLWCFGF”, for which the “transcriptional activation domain activity” value worked out at 41000.

Turning to “PLGTVGLAKLVFVKMFGGAKRITITLISAALLMMAVRFFSIAHPFLLADNRHY”, the “transcriptional activation domain activity” value is 62400.

Regarding “PLHLLGDKAEVEIGGVWSAGMAYGSRELVERHLFSLYFMLPLVAVCIGFLYHN”, the “transcriptional activation domain activity” value worked out at 41200.

For “PLIDLFGKDHLCLVKAAYHKIFGIVFESGTDLTDHVRRMLCTRSDFARTILPL”, the “transcriptional activation domain activity” value came to 82800.
